From the nanobody polyreactivity screen of Harvey et al. (2022)

experiment: yeast display, Sf9 membrane polyspecificity reagent, FACS + sequencing; frameworks hold sequencing errors
Outline: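 Sorting gates, low and high (top ~1%), were placed on anti-HA fluorescence to track expression and on streptavidin fluorescence to track reagent binding. A clone's polyreactivity label is taken from the gate it came out of. The reagent was 10% biotinylated, detergent-solubilized Sf9 membrane, applied for 1 hour at 4 °C to galactose-induced yeast display cells.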

| Sequence | polyreactivity (PSR sort gate) |
| --- | --- |
| QVQLVESGGGLVQAGGSLRLSCAASGSIFPSYGMGWYRQAPGKERELVARITSGGGTNYADSVKGRFTISRDNAKNTVYLQMNSLKPEDTAVYYFNKAFRGSQGHRGHYRYGYWGQGTQVTVSS | high polyreactivity |
| QVQLVESGGGLVQAGGSLRLSCAASGSIFPTNAMGWYRQAPGKERELVAAISSRDGSTYYADSVKGRFTISRDNAKNTVYLQMNSLKPEDTAVYYCNTDHDPIYFYITRHDSWGQGTQVTVSS | low polyreactivity |
| QVQLVESGGGLVQAGGSLRLSCAASGSIFPTYAMGWYRQAPGKEWELVAAIRGDGSTNYADSVKGRFTISRDNAKNTVYLQMNSLKPEDTAVSYCAAVSSEYVFRYGGYWGQGTQVTVSS | low polyreactivity |
| QVQLVESGGGLVQAGGSLRLSCAASGSIFPVNAMGLYRQAPGKERELVAAINTSSGSTYYADSVKGRFTISRDNAKNTVYLQMNSLKPEDTAVYYCAAVYVASGYRYGYWGQGTQVTVSS | high polyreactivity |
| QVQLVESGGGLVQAGGSLRLSCAASGSIFPVNVMGWYRQEPGKERELVARITSGGSTIYADSVKGRFTISRDNAKNTVYLQMNSLKPEDTAVYYCAARQYHWYLPSYWYRYDYWGQGTQVTVSS | high polyreactivity |
| QVQLVESGGGLVQAGGSLRLSCAASGSIFPWNAMGWYRQAPGKERELVAAISFSSGGSTYYADSVKGRFTISRDNAKNTVYLQMNSLKPEDPAVYYCAARTKLWVLGNYYYWGQGTQVTVSS | high polyreactivity |
| QVQLVESGGGLVQAGGSLRLSCAASGSIFPWYTMGWYRQAPGKEREFVAAISWSGGSTYYADSVKGRFTISRDNAKNTDYLQMNSLKPEETAVYYCAASRRPWYRAVTWNAGDYWGQGTQVTVSS | high polyreactivity |
| QVQLVESGGGLVQAGGSLRLSCAASGSIFPYNAMGWYRQAPGKERELVAAITTSGTSTYYADSVKGRFTISRDNAKNTVYLQMNSLKPEDTAVYYCAATSRGAISKARFYYWGQGTQVTVSS | high polyreactivity |
| QVQLVESGGGLVQAGGSLRLSCAASGSIFPYNAMGWYRQAPGKERELVATISSGGSTNYADSVKGRFTISRDNAKNTVYLHMNSLKPEDTAVYYCAADVIVFYYAPNYWGDIGYGYWGQGTQVTVSS | low polyreactivity |
| QVQLVESGGGLVQAGGSLRLSCAASGSIFPYYAMGWYRPAPGTERELVAAISRGGGTTYYADSVKGRFTISRDNAKNTVYLQMNSLKPEDTAVYYCAARQWRISTPYDYWGQGTQVTVSS | high polyreactivity |
| QVQLVESGGGLVQAGGSLRLSCAASGSIFPYYAMGWYRQAPGKERELVAAINWIGGSTYYADSVKGRFTISRDNAKNTVYLQMNSLKPEDTAVYYCAVDYYSYYYEYDYWGQGTQVTVSS | high polyreactivity |
| QVQLVESGGGLVQAGGSLRLSCAASGSIFPYYAMGWYRQAPGKERELVAAITGAGSTNYADSVKGRFTISRDNAKNTVYLQMNSLKPEDTAVYYCAADFGSPDKWRDWYDYWGQGTQVTVSS | low polyreactivity |
| QVQLVESGGGLVQAGGSLRLSCAASGSIFPYYAMGWYRQAPGKERELVAAITYIGGDTYYADSVKGRFTISRDNAKNTVYLQMNSLKPEDTAVYYCAAELSWRQYDYEYWGQGTQVTVSS | low polyreactivity |
| QVQLVESGGGLVQAGGSLRLSCAASGSIFPYYTMGWYRQAPGKERELVAAISGSGGSTYYADSVKGRFTISRDNAKNTVYLQMNSLKPEDTAVYYCAAYRRTWFDYWGQGTQVNVSS | high polyreactivity |
| QVQLVESGGGLVQAGGSLRLSCAASGSIFPYYTMGWYRQAPGKERELVATITTGGSTNYADSVKGRFTISRDNAENTVYLQMNCLKPEDIAVYYCNKDGVVEVRFTGRQEYDYWGQGTQVTVSS | low polyreactivity |
| QVQLVESGGGLVQAGGSLRLSCAASGSIFQGNAMGWYTQAPGKERELVAAITYSGGSTYYADSVKGRFTISRDNAKNTVYLQMNSLKAEDTAVYYCNTTLRDSRQYVDRAQYNRYDYWGQGTQVTVSS | low polyreactivity |
| QVQLVESGGGLVQAGGSLRLSCAASGSIFQHNDMGWYRQAPGKERELVAAMSRSGGSTYYADSVKGRFTISRDNAKNTVYLQRNSLKPEDTAVYYCNAGRRTGRYAYWGQGTQVTVSS | high polyreactivity |
| QVQLVESGGGLVQAGGSLRLSCAASGSIFQPNGMGWYRQAPGQEREFVARIDRSGGSTYYADSVKGRFTISRDNAKNTVYLQMNSLKPEDTAVYYCHAAGEVIGYDYWGQGTQVTVSS | low polyreactivity |
| QVQLVESGGGLVQAGGSLRLSCAASGSIFQPYAMGWYRQAPGKERELVAAISSSGGSTTYADSVKGRFTISRDNAKNTVYLQMNSLKPEDTAVYYCAADVEYKVFPGDYWGQGTQVTVSS | low polyreactivity |
| QVQLVESGGGLVQAGGSLRLSCAASGSIFQRTAMGWYRQAPGNERELVASINSGGSTNYADSVKGRFTISRDNAKNTVYLQMNSLKPEDTAVYYCAAVRPWWRNKPQWPRYDYWGLGTQVTVSS | low polyreactivity |
| QVQLVESGGGLVQAGGSLRLSCAASGSIFQRYTMGWYRQAPGKERELVAAITSRSGRTYYADSVKGRFTISRDNAKNTVYLQMNSLKPEDTAVYYCATVPYDQTRGYKYDYWGQGTQVTVSS | high polyreactivity |
| QVQLVESGGGLVQAGGSLRLSCAASGSIFQSYAMGWYRQAPGKERELVATITISDGSTYYADSVKGRFTISRDNAKNTVYLQMNSLKPEDTAVYYCAATDYISYGAPLRRGLNYDYWGQGTQVTVSS | low polyreactivity |

| Sequence | polyreactivity (PSR sort gate) |
| --- | --- |
| QVQLVESGGGLVQAGGSLRLSCAASGSIFQSYDMGWYRQAPGKERELVAAIRSGDSTYYADSVKGRFTISRDNAKNTVYLQMNSLKPEDTAVYYCNKDEATFLSKDGYWGQGTQVTVSS | low polyreactivity |
| QVQLVESGGGLVQAGGSLRLSCAASGSIFQWNAMGWYRQAPGKERELVAAISSGTSTNYADSVKGRFTISRDNAKNTVYLQMNSLKPEDTAVYYCAAEGRGWAAFEVGYWGQGTLVTVSS | low polyreactivity |
| QVQLVESGGGLVQAGGSLRLSCAASGSIFQWNAMGWYRQAPGKERELVAAISTRGGRTYYADSVKGRFTISRDNAKNTVYLQMNSLKPEDTAVYYCAKQYGSYGRYYKYYYWGQGTQVTVSS | high polyreactivity |
| QVQLVESGGGLVQAGGSLRLSCAASGSIFQWYAMGWYRQAPGKERELVAAINWSSGSTYYADSVKGRFTISRDIAKNTVYLQMNSLKPEETAVYYCAARIGYGTSYLRRIYYWGQGTQVTVSS | high polyreactivity |
| QVQLVESGGGLVQAGGSLRLSCAASGSIFQYNAMGWSRQAPGKERELVAAIRTNYADSVKGRFTISRDNAKNTVYLQMNSLKPEDTAVYYCAAESSQTPTSAFDYWGQGTQVTVSS | low polyreactivity |
| QVQLVESGGGLVQAGGSLRLSCAASGSIFQYNAMGWYRQAPGKERELVAVISRSGSRTYYADSVKGRFTISRDNAKNTVYLQMNSLKPEDTAVYYCAAPFTSIGARDYYYWGQGTQVTVSS | high polyreactivity |
| QVQLVESGGGLVQAGGSLRLSCAASGSIFQYYGMGWYRPAPGKERELVAAITWNGGSTYADSVKGRFTISRDNAKNTVYLQMNSLKPEDTAVYYCAADLLVRWWLDYDYWGQGTQVTVSS | low polyreactivity |
| QVQLVESGGGLVQAGGSLRLSCAASGSIFQYYGMVWYRQAPGKERELVASISRSGGSTYYADSVKGRFTISRDNAKNTVYLQMNSLKPEDTAVYYCNAKEPIRRTHLTSTYRDGYWGQGTQVTVSS | low polyreactivity |
| QVQLVESGGGLVQAGGSLRLSCAASGSIFQYYLIGWYRKAPGKERELVAAIRRSGTTYYADSVKGRFTISRDNAKNTVYLQMNSLKPEDTAVYYCNKVRGQEQSNYDYWGQGTQVTVSS | low polyreactivity |
| QVQLVESGGGLVQAGGSLRLSCAASGSIFQYYVMGWYRQAPGKERELDAAIRRSGTTYYADSVKGRFTISRDNAKNTVYLQMNSLKPEDTAVYYCNADSIYYYYLIEYEYWGQGSQVTVSS | low polyreactivity |
| QVQLVESGGGLVQAGGSLRLSCAASGSIFQYYVMGWYRQAPGKERELVAAISQSGGRTYYADSVKGRFTISRDNAKNTVYLQMNSLKPEDTAVYYCAADSRNAEYDYWGQGTQVTVSS | high polyreactivity |
| QVQLVESGGGLVQAGGSLRLSCAASGSIFRAYAMGWYRQAPGKERELVAAINWTDGSTYYADSVKGRFTISRDKAKNTVYLQMNSLKPEDTAVYYCAKDSIARHNYWGQGTQVTVSS | low polyreactivity |
| QVQLVESGGGLVQAGGSLRLSCAASGSIFRAYAMGWYRQAPGKERELVAGITKSGGSTYYADSVKGRFTISRDNAKNTVYLQMNSLKAEDTAVYYCAAYRSRTYGYWGQGTQVTVSS | high polyreactivity |
| QVQLVESGGGLVQAGGSLRLSCAASGSIFRAYVMGWYRQAPGKERELVAAISRGGSTNYADSVKGRFTISRDNAKNTVYLQMNSLKPEDSAVYYCAADWYFYSMYDEVEYWGQGTQVTVSS | low polyreactivity |
| QVQLVESGGGLVQAGGSLRLSCAASGSIFRDNAMGWYLQAPGKERELVASISRRGGSTYYADSVKGRFTISRDNAKNTVYLQMNSLKPEDTAVYYCAARAVGGTVPTRYDYWGQGTQVTVSS | high polyreactivity |
| QVQLVESGGGLVQAGGSLRLSCAASGSIFRDYAMGWYRPAPGKERELVAAISSGVSTNYADSVKGRFSISRDNAKNSVYLKMNSLIPEDTAVYYCNTDKYSESFRSYEYWGQGTQVTVSS | low polyreactivity |
| QVQLVESGGGLVQAGGSLRLSCAASGSIFRFKAMGWYRQAPGKERELVAAISWSGGRTYYADSVKGRFTISRDNAKNTVYLQMNSLKPEDTAVYYCAARRSGLKVSPNFGYWGQGTQVTVSS | high polyreactivity |
| QVQLVESGGGLVQAGGSLRLSCAASGSIFRFNTMGWYRQAPGKERELVAAITSGDGTYYADSVKGRFTISRDNAKNTVYLQMNSLKPEDTAVYYCAATRTYQLYRWAPRYYYWGQGTQVTVSS | high polyreactivity |
| QVQLVESGGGLVQAGGSLRLSCAASGSIFRGNALGWYRQAPGKERELFAAISKSGGSTYYADSVKGRFTISRDNAKNTVDLEMNSLKPEDTAVYYCAARTTYLYGMYYWGQGTQVTVSS | low polyreactivity |
| QVQLVESGGGLVQAGGSLRLSCAASGSIFRGNAMGWYRQAPGKERELVAAISSRGGSTYYADSVKGRFTISRDNAKNTVYLQMNSLKPEDTAVYYCGAVRYKYWGVQRSYSWGQGTKVTVSS | high polyreactivity |
| QVQLVESGGGLVQAGGSLRLSCAASGSIFRGNAMGWYRQAPGKERELVASISKGGGSTDYADSVKGRFIISRDNAKNTVYLQMNSLKPEDNAVYYCNKDYDRPDYYYWGQGTQVTVSS | low polyreactivity |
